One series addresses HILI (hHILI) (human, UniProt Q8TC59 1-973). The series is described as follows: single-molecule fluorescence.
The target in a further series is AGO2 (hAGO2) (human, UniProt Q9UKV8 1-859). The series is described as follows: single-molecule fluorescence.
In series [1] the target is T1, AUF1 p37 C207E (UniProt Q14103-4 1-287, C207E). The series is described as follows: fluorescence anisotropy. A general note: Fluorescence polarisation rises when a labelled molecule tumbles more slowly, as on binding a larger partner.
The next series addresses AUF1 p37 (UniProt Q14103-4 1-287). Briefly: fluorescence anisotropy.
Another series concerns the target AUF1 p42 (UniProt Q14103-2 1-336). Briefly: fluorescence anisotropy.
The target in series [2] is T1, AUF1 p37 C207E. The series is described as follows: EMSA. Background: Mobility shift assays separate free from complexed probe on a gel.

Chain of HILI (hHILI) (Q8TC59 whole entry): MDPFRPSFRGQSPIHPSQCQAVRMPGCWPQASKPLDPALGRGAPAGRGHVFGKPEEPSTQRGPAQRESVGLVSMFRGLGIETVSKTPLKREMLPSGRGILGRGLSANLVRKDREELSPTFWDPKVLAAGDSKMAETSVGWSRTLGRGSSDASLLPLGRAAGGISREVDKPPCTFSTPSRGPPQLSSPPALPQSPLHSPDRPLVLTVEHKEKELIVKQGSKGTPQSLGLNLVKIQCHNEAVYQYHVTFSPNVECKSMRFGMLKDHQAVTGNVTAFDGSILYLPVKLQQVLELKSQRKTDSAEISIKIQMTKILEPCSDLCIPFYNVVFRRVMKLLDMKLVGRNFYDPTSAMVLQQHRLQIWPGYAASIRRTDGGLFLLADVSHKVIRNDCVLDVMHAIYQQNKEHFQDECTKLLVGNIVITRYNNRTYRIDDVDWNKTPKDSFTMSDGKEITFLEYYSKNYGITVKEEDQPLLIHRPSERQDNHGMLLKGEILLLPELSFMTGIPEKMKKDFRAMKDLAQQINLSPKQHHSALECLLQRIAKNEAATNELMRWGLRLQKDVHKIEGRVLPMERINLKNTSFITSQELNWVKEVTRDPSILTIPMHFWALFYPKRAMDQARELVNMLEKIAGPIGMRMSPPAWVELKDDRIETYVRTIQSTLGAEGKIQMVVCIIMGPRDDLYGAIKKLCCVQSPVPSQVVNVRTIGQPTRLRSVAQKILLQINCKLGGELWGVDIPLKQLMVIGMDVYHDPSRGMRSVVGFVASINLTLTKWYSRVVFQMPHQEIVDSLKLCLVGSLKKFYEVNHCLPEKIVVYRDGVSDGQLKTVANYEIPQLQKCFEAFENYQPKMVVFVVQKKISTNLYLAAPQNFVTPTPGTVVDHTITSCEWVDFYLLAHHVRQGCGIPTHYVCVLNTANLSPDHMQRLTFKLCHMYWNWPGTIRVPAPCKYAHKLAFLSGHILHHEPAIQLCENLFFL
Chain of AGO2 (hAGO2) (Q9UKV8 whole entry): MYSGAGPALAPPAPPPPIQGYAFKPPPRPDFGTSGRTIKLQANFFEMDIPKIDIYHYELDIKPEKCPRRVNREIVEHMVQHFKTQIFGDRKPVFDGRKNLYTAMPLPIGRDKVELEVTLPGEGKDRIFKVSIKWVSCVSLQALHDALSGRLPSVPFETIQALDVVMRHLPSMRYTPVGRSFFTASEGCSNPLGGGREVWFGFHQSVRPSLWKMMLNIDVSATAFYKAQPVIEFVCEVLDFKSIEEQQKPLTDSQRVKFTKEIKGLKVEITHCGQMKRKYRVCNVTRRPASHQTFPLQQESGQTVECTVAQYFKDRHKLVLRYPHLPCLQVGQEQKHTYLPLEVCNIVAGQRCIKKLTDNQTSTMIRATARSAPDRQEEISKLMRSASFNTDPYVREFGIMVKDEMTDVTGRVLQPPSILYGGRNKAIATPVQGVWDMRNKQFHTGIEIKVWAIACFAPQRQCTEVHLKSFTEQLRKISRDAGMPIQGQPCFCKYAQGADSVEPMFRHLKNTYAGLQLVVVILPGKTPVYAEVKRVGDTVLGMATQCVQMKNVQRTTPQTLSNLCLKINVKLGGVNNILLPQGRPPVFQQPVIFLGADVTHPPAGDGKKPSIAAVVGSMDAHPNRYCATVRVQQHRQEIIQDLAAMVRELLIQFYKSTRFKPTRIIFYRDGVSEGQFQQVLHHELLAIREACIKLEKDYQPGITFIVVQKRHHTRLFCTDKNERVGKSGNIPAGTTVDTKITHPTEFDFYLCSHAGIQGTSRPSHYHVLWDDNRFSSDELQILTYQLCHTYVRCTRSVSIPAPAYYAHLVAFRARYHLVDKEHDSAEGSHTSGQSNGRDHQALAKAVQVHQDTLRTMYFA

Regarding UGAGGUAGUAGGUUGUGUGGUU (ssRNA, amino-modifier C6 U at position 18 (iAmMC6)) [Cy5-let-7b (internal)], the binding result with HILI (hHILI) was “no binding”; with AGO2 (hAGO2) it was “binds”.

As for UGAGGUAGUAGGUUGUGUGGUU (ssRNA) [let-7b (Fl)], the binding result in the series with AUF1 p37 C207E [1] was “no binding”. For the same molecule, the dissociation constant (Kd) (as a rule, the free concentration of one partner at which half of the binding sites on the other are occupied at equilibrium, for simple one-to-one binding) is 5.9 nM with AUF1 p37 and 9.7 nM with AUF1 p42.

Regarding UGAGGUAGUAGGUUGUGUGGUU (ssRNA) [let-7b (32P)], the binding result with AUF1 p37 C207E [2] is given as “no binding”.

For CCCCUGGCUCACAAAUACCUUAUUUAUUUAUUUAG (ssRNA) [canonical AU-rich element], the binding result with AUF1 p37 C207E [2] is given as “no binding”.

Consider CUAUACAACCUACUGCCUUCCC (ssRNA) [let-7b* (32P or 3' Fl)], for which the binding result with AUF1 p37 C207E [2] is given as “no binding”.
